T1: BCMA protein on MM1R cells (UniProt Q02223 1-184, limits assumed)
T1 construct: whole, on cells; also called BCMA proteins on MM1R cell membrane surfaces
T1 sequence (looked up): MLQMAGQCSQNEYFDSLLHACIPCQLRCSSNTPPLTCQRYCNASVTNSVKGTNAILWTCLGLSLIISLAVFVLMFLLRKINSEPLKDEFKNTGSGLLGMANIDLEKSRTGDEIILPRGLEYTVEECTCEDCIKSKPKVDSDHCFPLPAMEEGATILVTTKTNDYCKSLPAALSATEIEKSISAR

T2: Human BCMA-Avi-His (human, UniProt Q02223 2-54)
T2 construct: SPR analyte; also called human BCMA Avi-His protein
T2 sequence (looked up): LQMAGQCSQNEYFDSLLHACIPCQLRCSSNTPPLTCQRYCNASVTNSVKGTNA


What was measured:
[1] = target: T1, BCMA protein on MM1R cells; experiment: flow cytometry on MM1R cells
Experimental: HEK 293 cells or MM1R cells (0.5×10⁶) were aliquoted into separate FACS tubes and were labelled as unstained, test sample or positive control. Hybridoma sup (20 μL) or purified CA10 or positive control (1 μg/mL, 5 μL) were added to the cells and incubated on ice for 30 minutes. […] The supernatant was poured off and the cells were gently vortexed to mix. 50 μL of 1:500 dilution of FITC conjugated goat anti-human (or mouse) H+L specific secondary antibody was added to the cells, and the cells were incubated on ice or at 4° C. for 30 minutes in the dark. […] The supernatant was discarded, and the cells were resuspended in 150-200 μL of FACS buffer. The cells were acquired on a BD FACS Canto and data analyzed using Flojo V10. Software.

Human BCMA-Avi-His = target: T2, Human BCMA-Avi-His; experiment: SPR (Biacore T100), antibody captured on Protein A chip, antigen as analyte
Experimental: (§1) 1×HBS-EP+ was prepared in MilliQ water, filtered, and degassed. A BIACORE™ T100 was primed with 1×HBS-EP+. The immobilized chip […] BIACORE™ control software was used.
(§2) The antibodies were diluted to 20 μg/mL in HBS-EP+. Seven 1:1 serial dilutions of the antigens were prepared (80 nM final concentration), and 1×HBS-EP+ was used as a 0 nm control. 1×HBS-EP+ was used for start-up injections and HCl (12 mM) was used for regeneration. The samples were run, and the data were analyzed using the BIACORE™ T100 software.

Cyno BCMA-Avi-His = target: T3, Cyno BCMA-Avi-His (cynomolgus, UniProt A0A2K5UD97 2-53); experiment: as above
T3 construct: SPR analyte; also called cynomolgus BCMA Avi-His protein
T3 sequence (A0A2K5UD97 entry or part of it): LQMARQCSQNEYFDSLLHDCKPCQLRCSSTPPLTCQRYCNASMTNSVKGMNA
Experimental: as §1, §2

[2] = target: T4, cynomolgus BCMA protein (ELISA antigen) (cynomolgus, UniProt A0A2K5UD97 1-53); experiment: ELISA on coated BCMA antigen
T4 construct: also called Cyno BCMA; BCMA antigen
T4 sequence (A0A2K5UD97 entry or part of it): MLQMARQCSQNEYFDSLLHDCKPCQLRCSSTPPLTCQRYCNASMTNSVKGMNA
Experimental: A solution of BCMA antigen (2 μg/mL or 1 mg/mL biotinylated BCMA antigen when Streptavidin coated plate is used) was prepared in phosphate buffered saline (PBS). The antigen solution was added to 96-well plates (50 μL per well) and was incubated at 4° C. overnight. The plates were blocked with 250 μL per well of PBSA (PBS containing 1% BSA) for 2 hr at 37° C., then washed with 200 μL per well of phosphate buffered saline (PBS) three times. Hybridoma sup (50 μL) or 1 mg/mL of purified test or control (positive and negative) antibody (50 μL) were added per well in the 96-well plate and were incubated for 1 hour at room temperature. The plates were washed with 200 μl per well of PBS, three times, then horse radish peroxidase (HRP) conjugated secondary antibody diluted at 1:5,000 in PBSA (50 μl per well) was added and incubated for 1 hour at room temperature. Then, the plates were washed with 200 μl per well of PBS, three times. The tetramethylbenzidine dihydrochloride (TMB) substrate was prepared by mixing with both Solution A and Solution B (1:1) in a 15 mL conical tube, then 50 μL of the substrate was added to the wells. The color was allowed to develop for 1-5 minutes, then 50 μL of the stop solution was added to each well. The absorbance was read using a SpectraMax (Molecular Devices) at 450 nm.

Cyno BCMA DTA-His = target: T5, Cyno BCMA DTA-His (cynomolgus); experiment: SPR (Biacore T100), antibody captured on Protein A chip, antigen as analyte
T5 construct: SPR analyte, Mw 28,203 Da; also called Cyno DTA His; cynomolgus BCMA DTA-His protein
T5 sequence (P00588 32-225, tags or fused parts left off): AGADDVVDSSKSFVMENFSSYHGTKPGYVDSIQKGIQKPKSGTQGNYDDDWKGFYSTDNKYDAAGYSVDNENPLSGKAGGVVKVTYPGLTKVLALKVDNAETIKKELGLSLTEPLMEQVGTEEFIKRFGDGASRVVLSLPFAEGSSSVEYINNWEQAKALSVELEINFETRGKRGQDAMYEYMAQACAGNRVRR
Experimental: as §1, §2

Binder	binding result [1]	binding result (Human BCMA-Avi-His)	binding result (Cyno BCMA-Avi-His)	binding result [2]	binding result (Cyno BCMA DTA-His)
CA10_parental (antibody, V domains shown, tested as a mAb purified on mAbSelect SuRe; also called CA10_V2_parental; CA10 WT) VH: QVQLVESGGGVVQPGRSLRLSCAASGFTFSNFGMHWVRQAPGRGLEWVAVIWSDETNRYYADSVKGRFTVSRDNVKSTVYLQMNSLISEDTAVYYCARDQQYCSSDSCFTWFDPWGQGTLVTVSS VL: QVVVTQESALTTSPGETVTLTCRSSTGTVTPSNYANWVQEKPDHFFTGLIGDNNSRPPGVPARFSASLIGDKAALTITGAQTEDEAMYFCALWFGNQWVFGGGTKVTVL	binds	binds	binds		
CA10 Variant 5 (CA10_PE_V5) (antibody, V domains shown) VH: QVQLVESGGGVVQPGRSLRLSCAASGFTFSNFGMHWVRQAPGRGLEWVAVIWSDETNRYYADSVKGRFTVSRDNVKSTVYLQMNSLISEDTAVYYCARDQQYCSSDSCFTWFDPWGQGTLVTVSS VL: QTVVTQEPSLTVSPGGTVTLTCASSTGAVTSGYYANWVQQKPGQAPRALIGDNNIKPSWTPARFSGSLLGGKAALTLSGVQPEDEAEYYCALYYGGQWVFGGGTKLTVL			no binding (tested: antigen up to 80 nM)	no binding	no binding (tested: antigen up to 80 nM)
CA10 Variant 2 (antibody, V domains shown) VH: QVQLVESGGGVVQPGRSLRLSCAASGFTFSNFGMHWVRQAPGRGLEWVAVIWSDETNRYYADSVKGRFTVSRDNVKSTVYLQMNSLISEDTAVYYCARDQQYCSSDSCFTWFDPWGQGTLVTVSS VL: QTVVTQEPSLTVSPGGTVTLTCASSTGTVTPSNYANWVQQKPGQAPRGLIGDNNSRPPGTPARFSASLLGGKAALTLSGVQPEDEAEYYCALWFGNQWVFGGGTKLTVL	binds	binds	binds		
CA10 Variant 3 (antibody, V domains shown) VH: QVQLVESGGGVVQPGRSLRLSCAASGFTFSNFGMHWVRQAPGRGLEWVAVIWSDETNRYYADSVKGRFTVSRDNVKSTVYLQMNSLISEDTAVYYCARDQQYCSSDSCFTWFDPWGQGTLVTVSS VL: QTVVTQEPSLTVSPGGTVTLTCASSTGAVTPSNYANWVQQKPGQAPRGLIGDNNIKPPWTPARFSGSLLGGKAALTLSGVQPEDEAEYYCALWYGGQWVFGGGTKLTVL	binds	binds	binds		
CA10 Variant 4 (antibody, V domains shown) VH: QVQLVESGGGVVQPGRSLRLSCAASGFTFSNFGMHWVRQAPGRGLEWVAVIWSDETNRYYADSVKGRFTVSRDNVKSTVYLQMNSLISEDTAVYYCARDQQYCSSDSCFTWFDPWGQGTLVTVSS VL: QTVVTQEPSLTVSPGGTVTLTCASSTGAVTPGYYANWVQQKPGQAPRGLIGDNNNKPPWTPARFSGSLLGGKAALTLSGVQPEDEAEYYCALYYGGQWVFGGGTKLTVL	binds				
CA10 Variant 6 (antibody, V domains shown) VH: QVQLVESGGGVVQPGRSLRLSCAASGFTFSNFGMHWVRQAPGRGLEWVAVIWSDETNRYYADSVKGRFTVSRDNVKSTVYLQMNSLISEDTAVYYCARDQQYCSSDSCFTWFDPWGQGTLVTVSS VL: QTVVTQEPSLTVSPGGTVTLTCASSTGTVTPSNYANWVQQKPGQFPRGLIGDNNSRPPGTPARFSASLLGGKAALTLSGVQPEDEAEYYCALWFGNQWVFGGGTKLTVL	binds	binds	binds		
CA10 Variant 1 (antibody, V domains shown) VH: QVQLVESGGGVVQPGRSLRLSCAASGFTFSNFGMHWVRQAPGRGLEWVAVIWSDETNRYYADSVKGRFTVSRDNVKSTVYLQMNSLISEDTAVYYCARDQQYCSSDSCFTWFDPWGQGTLVTVSS VL: QTVVTQEPSLTVSPGGTVTLTCRSSTGTVTPSNYANWVQQKPDHFFTGLIGDNNSRPPGVPARFSASLIGDKAALTLSGVQPEDEAEYYCALWFGNQWVFGGGTKLTVL	binds	binds	binds		

From patent US20240117062A1 (Sanofi, published 2024)
